From the supplement of paper PMC12042874
± gives the uncertainty stated by the source.

Experiment: amyloid nucleation score (Sup35N fusion, yeast selection) (log enrichment); library NNK1; higher = more nucleation; inactive = no reads after selection
Outline: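 The nucleation score is the log enrichment of output over input reads, calculated with DiMSum and centred on the mode score of non-aggregating sequences. Sequences with under 100 input reads were excluded. Reads came from Illumina sequencing of plasmid inserts from psi-negative yeast expressing Sup35N fused to peptides of 20 random codons, induced 24 hours with 100 μM copper sulfate and grown 7 days at 30°C without adenine and uracil.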

## VFRTLHSPSVSSGRWSSELS
  amyloid nucleation score: -0.475 ± 0.5

## VFSCLLHYIFKAMLGYSVCL
  amyloid nucleation score: -0.155 ± 0.3

## VFSCWKAVILIPVQGVLVQR
  amyloid nucleation score: 0.616 ± 0.41

## VFTFLSMLRWVIFCNVVGVD
  amyloid nucleation score: inactive

## VFTHAFNMLCVFYTSQGLKR
  amyloid nucleation score: 5.35 ± 0.1

## VFTSNGNDLPISRSELRLNL
  amyloid nucleation score: inactive

## VFVHFVSQWDFEATWT
  amyloid nucleation score: 0.27 ± 0.71

## VFVICCKRREAG
  amyloid nucleation score: -0.295 ± 0.34

## VFVSCIILRRYFYMFLVGPF
  amyloid nucleation score: 0.752 ± 0.45

## VFVVN
  amyloid nucleation score: -0.557 ± 0.55

## VFWVNFLFYYGSLLHSKGV
  amyloid nucleation score: -1.05 ± 1

## VFWWT
  amyloid nucleation score: -0.575 ± 0.29

## VGAFVSRVSLLDADGLLLGS
  amyloid nucleation score: -0.09 ± 0.61

## VGDVTGF
  amyloid nucleation score: 0.154 ± 0.95

## VGEALYHESSGTVNLEILCS
  amyloid nucleation score: inactive

## VGLCYRGKWDGFLDKKVRWK
  amyloid nucleation score: -1.73 ± 2.7

## VGLTARHKCWVGTCRGGPRT
  amyloid nucleation score: -0.711 ± 1.3

## VGLVLKIHVYNYFMETAQQS
  amyloid nucleation score: 6.555 ± 0.053

## VGNMRYL
  amyloid nucleation score: -0.332 ± 0.5

## VGNRRYNTSVMALSNQRNTR
  amyloid nucleation score: 0.636 ± 1

## VGRGSGPRAQYMWLSKTEAG
  amyloid nucleation score: -0.2 ± 0.47

## VGRRNKVAWVKLRHEVRRCV
  amyloid nucleation score: 0.106 ± 0.52

## VGSSNTTNKYPGFCCWRFDG
  amyloid nucleation score: 0.444 ± 0.53

## VGTFTGV
  amyloid nucleation score: -0.189 ± 0.43

## VGVWLFCLAYWE
  amyloid nucleation score: inactive

## VGWFFMYVPSSSAVFSKFLN
  amyloid nucleation score: inactive

## VHNPSVNDLYFLVICCVYLF
  amyloid nucleation score: 0.484 ± 0.26

## VHRRRIRQSAWVRGAVSTFR
  amyloid nucleation score: -0.011 ± 0.4

## VHSCFHFSNKGRLVWFPSFH
  amyloid nucleation score: inactive

## VHWRYWFVLISLDQRIGKA
  amyloid nucleation score: 0.199 ± 0.21

## VIAFCSRPDC
  amyloid nucleation score: 0.425 ± 0.52

## VIASSATGYIHR
  amyloid nucleation score: 2.46 ± 0.12

## VIDEFLSMCRVNMMGGVCRV
  amyloid nucleation score: 2.28 ± 0.35

## VIERFMAKRPGC
  amyloid nucleation score: 0.698 ± 0.68

## VIFRDPGQRRLSC
  amyloid nucleation score: -0.858 ± 2.1

## VIGVGKMLGNNHYPLSDQGL
  amyloid nucleation score: -0.05 ± 0.26

## VIHYSGLSMVAVQ
  amyloid nucleation score: -0.379 ± 0.49

## VINCITRLDVQYRKHTPFAN
  amyloid nucleation score: -0.382 ± 0.3

## VISSSVWFFATMQDCWVGRQ
  amyloid nucleation score: 0.509 ± 0.69

## VKESRCCSYGTVRSISQGLG
  amyloid nucleation score: -0.512 ± 0.89

## VKEWGTNSVLGSYTVAQEMS
  amyloid nucleation score: 0.096 ± 0.94

## VKHFLSDMRLFIGPKIFMRC
  amyloid nucleation score: 4.49 ± 0.062

## VKLCRACCYEYWRHHSPLGC
  amyloid nucleation score: 0.594 ± 0.43

## VKLFSVNKNNMTVPSTALCS
  amyloid nucleation score: 5.969 ± 0.047

## VKRLTRAVFCSFKSRVARSS
  amyloid nucleation score: 0.238 ± 0.58

## VKRRVSDTHVSCVKGHGSVC
  amyloid nucleation score: inactive

## VKSNFLHSGKIGYTSAVGFG
  amyloid nucleation score: -1.16 ± 1.9

## VKSQCECHVSSFALFCWARD
  amyloid nucleation score: 3.85 ± 0.1

## VKTNWLNWWLLNGLRASRCL
  amyloid nucleation score: 0.062 ± 0.58

## VKTPTDRSYRLHGNFIGCWA
  amyloid nucleation score: -0.576 ± 0.38

## VKYSVENCMITWDVYMGASL
  amyloid nucleation score: -0.561 ± 0.29

## VLCLWISGLPVLCSVCDPLV
  amyloid nucleation score: 0.1 ± 0.45

## VLCNFWMD
  amyloid nucleation score: 2.9 ± 0.17

## VLCSMDSVGSSGASGIFTYM
  amyloid nucleation score: -0.025 ± 0.4

## VLDYGIVFNVVLLICIRTTE
  amyloid nucleation score: 4.87 ± 0.064

## VLEDDSDWGSRFVRRGYIKT
  amyloid nucleation score: 1.15 ± 0.61

## VLFAR
  amyloid nucleation score: 0.566 ± 0.48

## VLFGTCCRVILLWSV
  amyloid nucleation score: 2.04 ± 0.43

## VLFIWTLF
  amyloid nucleation score: 0.341 ± 0.26

## VLGKCVNR
  amyloid nucleation score: -0.366 ± 0.21

## VLGLGRENSLRVNFYRLCKS
  amyloid nucleation score: inactive

## VLHFHVDDMDYNFFSW
  amyloid nucleation score: 0.578 ± 0.33

## VLIINFLPVWWKTYLSMMIR
  amyloid nucleation score: -0.256 ± 0.45

## VLLACGIFKDPTSCFCMLSL
  amyloid nucleation score: -0.432 ± 0.48

## VLLVRSNKSKLDRHRDWSGK
  amyloid nucleation score: 0.466 ± 1.4

## VLLYHNEDHWFCSRYYSSVS
  amyloid nucleation score: inactive

## VLQDSGIAAYKYSGSCDCSF
  amyloid nucleation score: -1.07 ± 0.58

## VLQRVQKPLLCMRVLDIYAW
  amyloid nucleation score: -0.11 ± 0.43

## VLSHVGFKSRMSVTNPGCLD
  amyloid nucleation score: -0.562 ± 0.81

## VLTFPLFCIGKLIKN
  amyloid nucleation score: 6.033 ± 0.045

## VLYGGDLALLSFDTGHPLFL
  amyloid nucleation score: 0.297 ± 0.38

## VMDVFV
  amyloid nucleation score: -0.292 ± 0.62

## VMGFGTCVRKQCSNYLKGIE
  amyloid nucleation score: 0.476 ± 0.63

## VMGNTDVVSDVSWVKCQKLK
  amyloid nucleation score: 0.328 ± 0.32

## VMKELLMTHLLSCCLYSLCL
  amyloid nucleation score: 1.28 ± 0.34

## VMKLDGDPKQVFPGYSLMEG
  amyloid nucleation score: -0.092 ± 0.36

## VMLSSSGYELHVWRVGGSDG
  amyloid nucleation score: 0.093 ± 0.75

## VMRVFILSMFWIVSECNRSY
  amyloid nucleation score: 2.38 ± 0.23

## VMYPRATLSQLRLKVTN
  amyloid nucleation score: -0.116 ± 0.4

## VNCGRMSAGCREVGWVDGES
  amyloid nucleation score: -0.316 ± 0.89

## VNDYWNFCYVCWKYQSIILY
  amyloid nucleation score: 3.14 ± 0.18

## VNKGFHFLILTTIINVDYGG
  amyloid nucleation score: 4.64 ± 0.07

## VNLFVLYPIYLFGSCSHNLM
  amyloid nucleation score: 7.373 ± 0.053

## VNPFIFLNRNCAPILGWTCC
  amyloid nucleation score: 3.11 ± 0.11

## VNSVCSGGALMPGFKCAQLK
  amyloid nucleation score: -0.169 ± 0.81

## VNVITCLY
  amyloid nucleation score: -1.33 ± 1.4

## VNVLRTII
  amyloid nucleation score: 0.255 ± 0.27

## VPDESDHFSFRVEMLSLKVD
  amyloid nucleation score: -0.639 ± 0.45

## VPFLWLRLCRRCYLTMGCSI
  amyloid nucleation score: -0.491 ± 0.97

## VPGLRI
  amyloid nucleation score: 0.584 ± 0.54

## VPILIVFQQVADASRIRIMR
  amyloid nucleation score: 4.77 ± 0.059

## VPLRTWLITWLGYNSHNWLC
  amyloid nucleation score: -0.302 ± 0.76

## VPVVRYYFTQFMDKYADDMF
  amyloid nucleation score: 1.36 ± 0.58

## VQFLLYSGFVQTILMPKASR
  amyloid nucleation score: 3.02 ± 0.15

## VQVQVGSFELNSGQRRSVLK
  amyloid nucleation score: -0.516 ± 1.3

## VQWLHDMLVHFN
  amyloid nucleation score: -0.022 ± 1

## VRADHYFYITHIKLKMSRV
  amyloid nucleation score: inactive

## VRDKSGPYYSSV
  amyloid nucleation score: 0.705 ± 0.4

## VRDYAGPFSFPYRSLRSEWQ
  amyloid nucleation score: 0.193 ± 0.56

## VRGPGDGFWLEDGTGSHSYR
  amyloid nucleation score: -0.078 ± 0.42

## VRHMWWVFPIFEISVRKCPV
  amyloid nucleation score: -0.116 ± 1

## VRIILWTMDVIFRLMFTRDQ
  amyloid nucleation score: 0.41 ± 0.51

## VRKCRVNYGENGFKYRTRTM
  amyloid nucleation score: 0.739 ± 0.4

## VRLRDVILSKVATMSF
  amyloid nucleation score: -0.363 ± 0.27

## VRMIT
  amyloid nucleation score: 0.388 ± 0.64

## VRNNNFAYVNSVTDGVRYAR
  amyloid nucleation score: inactive

## VRRGFGPIITLYNFIISIWF
  amyloid nucleation score: 0.895 ± 0.79

## VRRQRKVVLPTLMGNASGRP
  amyloid nucleation score: -0.183 ± 0.43

## VRSFGWTEFKCVTFFQEWIS
  amyloid nucleation score: -0.029 ± 0.44

## VRSWVLVLQSMCGLLSGGYG
  amyloid nucleation score: -0.802 ± 0.96

## VRWNWSGPNELYLRLFCRLP
  amyloid nucleation score: -0.508 ± 0.39

## VRYSL
  amyloid nucleation score: -0.42 ± 0.35

## VSDYFG
  amyloid nucleation score: 0.229 ± 0.87

## VSFILGSNCWAYKTTPMGFL
  amyloid nucleation score: 0.881 ± 0.39

## VSLAAPGCGFGCQRSRGASQ
  amyloid nucleation score: 0.013 ± 1.1

## VSLFLYISLSLRIVRRYVRV
  amyloid nucleation score: 0.263 ± 0.27

## VSLNASPL
  amyloid nucleation score: 0.902 ± 0.57

## VSLRCWCWGGTHVKPQRGYV
  amyloid nucleation score: 0.377 ± 0.77

## VSPRFGLSSMGNYQKVLVYI
  amyloid nucleation score: -0.651 ± 1.7

## VSRVDCDNFGLRSRVSAL
  amyloid nucleation score: 0.503 ± 0.37

## VSRYLWIIGRGWVN
  amyloid nucleation score: 0.412 ± 0.39

## VSTILYFDFVSVLPSALIEK
  amyloid nucleation score: 3.23 ± 0.18

## VSVFCTSFWASTKLYWTVSE
  amyloid nucleation score: -0.351 ± 0.6

## VSYMQSVVHCGPKARCKWRC
  amyloid nucleation score: 0.964 ± 0.67
